This is an account of results in paper doi:10.1101/2022.10.17.512631 (bioRxiv, 2022).

This test has as its target METTL3 (human, UniProt Q86U44 1-580). Nature of the test: SPR.

Sequence of METTL3 (Q86U44 whole entry): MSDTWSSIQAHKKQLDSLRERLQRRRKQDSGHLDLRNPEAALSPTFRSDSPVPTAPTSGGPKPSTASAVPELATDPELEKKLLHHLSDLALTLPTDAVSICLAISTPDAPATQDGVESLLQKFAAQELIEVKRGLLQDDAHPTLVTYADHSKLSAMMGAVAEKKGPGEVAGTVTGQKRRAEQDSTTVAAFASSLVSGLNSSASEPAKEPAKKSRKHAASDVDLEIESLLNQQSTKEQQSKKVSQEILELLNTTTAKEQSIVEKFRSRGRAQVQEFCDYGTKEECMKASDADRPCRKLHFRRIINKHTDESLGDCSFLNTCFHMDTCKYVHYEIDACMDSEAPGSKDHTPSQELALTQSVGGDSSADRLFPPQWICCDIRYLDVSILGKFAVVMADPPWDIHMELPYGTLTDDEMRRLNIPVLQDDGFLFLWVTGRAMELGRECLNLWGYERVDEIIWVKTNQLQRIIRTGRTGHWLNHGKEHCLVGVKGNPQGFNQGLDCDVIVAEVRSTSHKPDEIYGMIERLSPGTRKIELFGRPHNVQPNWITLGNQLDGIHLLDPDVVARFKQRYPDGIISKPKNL

B1: HEXIM1 (natural protein)
chain: MAEPFLSEYQHQPQTSNCTGAAAVQEELNPERPPGAEERVPEEDSRWQSRAFPQLGGRPGPEGEGSLESQPPPLQTQACPESSCLREGEKGQNGDDSSAGGDFPPPAEVEPTPEAELLAQPCHDSEASKLGAPAAGGEEEWGQQQRQLGKKKHRRRPSKKKRHWKPYYKLTWEEKKKFDEKQSLRASRIRAEMFAKGQPVAPYNTTQFLMDDHDQEEPDLKTGLYSKRAAAKSDDTSDDDFMEEGGEEDGGSDGMGGDGSEFLQRDFSETYERYHTESLQNMSKQELIKEYLELEKCLSRMEDENNRLRLESKRLGGDDARVRELELELDRLRAENLQLLTENELHRQQERAPLSKFGD
Take B1: the Kd (in general, the constant that tells how readily two partners part at equilibrium) was roughly 270 nM.
